Earlier results in patent US9394339B2, “Stabilized formulations of peptides and proteins protecting against non-enzymatic degradation” (Lyotropic Therapeutics, Inc., priority 2007, dated 2016).

B1: Carbonic anhydrase IV (1ZNC): human protein (protein, UniProt P22748 19-284, looked up)
Carbonic anhydrase 4: AESHWCYEVQAESSNYPCLVPVKWGGNCQKDRQSPINIVTTKAKVDKKLGRFFFSGYDKKQTWTVQNNGHSVMMLLENKASISGGGLPAPYQAKQLHLHWSDLPYKGSEHSLDGEHFAMEMHIVHEKEKGTSRNVKEAQDPEDEIAVLAFLVEAGTQVNEGFQPLVEALSNIPKPEMSTTMAESSLLDLLPKEEKLRHYFRYLGSLTTPTCDEKVVWTVFREPIQLHREQILAFSQKLYYDKEQTVSMKDNVRPLQQLGQRTVIKS
B2: Dihydropteridine reductase (1HDR): human protein (protein, UniProt P09417 2-244, looked up)
Dihydropteridine reductase: AAAAAAGEARRVLVYGGRGALGSRCVQAFRARNWWVASVDVVENEEASASIIVKMTDSFTEQADQVTAEVGKLLGEEKVDAILCVAGGWAGGNAKSKSLFKNCDLMWKQSIWTSTISSHLATKHLKEGGLLTLAGAKAALDGTPGMIGYGMAKGAVHQLCQSLAGKNSGMPPGAAAIAVLPVTLDTPMNRKSMPEADFSSWTPLEFLVETFHDWITGKNRPSSGSLIQVVTTEGRTELTPAYF
B3: Purine nucleoside phosphorylase (1ULA): human protein (protein, UniProt P00491 1-289, looked up)
Purine nucleoside …: MENGYTYEDYKNTAEWLLSHTKHRPQVAIICGSGLGGLTDKLTQAQIFDYGEIPNFPRSTVPGHAGRLVFGFLNGRACVMMQGRFHMYEGYPLWKVTFPVRVFHLLGVDTLVVTNAAGGLNPKFEVGDIMLIRDHINLPGFSGQNPLRGPNDERFGDRFPAMSDAYDRTMRQRALSTWKQMGEQRELQEGTYVMVAGPSFETVAECRVLQKLGADAVGMSTVPEVIVARHCGLRVFGFSLITNKVIMDYESLEKANHEEVLAAGKQAAQKLEQFVSILMASIPLPDKAS
B4: Branched-chain -keto acid dehydrogenase (1DTW): human protein (protein, UniProt P12694 46-445; P21953 51-392, looked up)
2-oxoisovalerate … 1: SSLDDKPQFPGASAEFIDKLEFIQPNVISGIPIYRVMDRQGQIINPSEDPHLPKEKVLKLYKSMTLLNTMDRILYESQRQGRISFYMTNYGEEGTHVGSAAALDNTDLVFGQYREAGVLMYRDYPLELFMAQCYGNISDLGKGRQMPVHYGCKERHFVTISSPLATQIPQAVGAAYAAKRANANRVVICYFGEGAASEGDAHAGFNFAATLECPIIFFCRNNGYAISTPTSEQYRGDGIAARGPGYGIMSIRVDGNDVFAVYNATKEARRRAVAENQPFLIEAMTYRIGHHSTSDDSSAYRSVDEVNYWDKQDHPISRLRHYLLSQGWWDEEQEKAWRKQSRRKVMEAFEQAERKPKPNPNLLFSDVYQEMPAQLRKQQESLARHLQTYGEHYPLDHFDK
2-oxoisovalerate … 2: VAHFTFQPDPEPREYGQTQKMNLFQSVTSALDNSLAKDPTAVIFGEDVAFGGVFRCTVGLRDKYGKDRVFNTPLCEQGIVGFGIGIAVTGATAIAEIQFADYIFPAFDQIVNEAAKYRYRSGDLFNCGSLTIRSPWGCVGHGALYHSQSPEAFFAHCPGIKVVIPRSPFQAKGLLLSCIEDKNPCIFFEPKILYRAAAEEVPIEPYNIPLSQAEVIQEGSDVTLVAWGTQVHVIREVASMAKEKLGVSCEVIDLRTIIPWDVDTICKSVIKTGRLLISHEAPLTGGFASEISSTVQEECFLNLEAPISRVCGYDTPFPHIFEPFYIPDKWKCYDALRKMINY

Details: aqueous solution, pH 7.4, 37° C., Tris-HCl buffer
For B1, the “T1/10 (time to 10% degradation by deamidation)” value is listed as 11 days.
In the case of B2, the “T1/10 (time to 10% degradation by deamidation)” value is listed as 15 days.
For B3, the “T1/10 (time to 10% degradation by deamidation)” value is listed as 0.27 days.
For B4, the “T1/10 (time to 10% degradation by deamidation)” value is listed as 12 days.
